In article PMC7566566:

T1: Hera (Thermus thermophilus, UniProt O07897 1-510)
T1 sequence: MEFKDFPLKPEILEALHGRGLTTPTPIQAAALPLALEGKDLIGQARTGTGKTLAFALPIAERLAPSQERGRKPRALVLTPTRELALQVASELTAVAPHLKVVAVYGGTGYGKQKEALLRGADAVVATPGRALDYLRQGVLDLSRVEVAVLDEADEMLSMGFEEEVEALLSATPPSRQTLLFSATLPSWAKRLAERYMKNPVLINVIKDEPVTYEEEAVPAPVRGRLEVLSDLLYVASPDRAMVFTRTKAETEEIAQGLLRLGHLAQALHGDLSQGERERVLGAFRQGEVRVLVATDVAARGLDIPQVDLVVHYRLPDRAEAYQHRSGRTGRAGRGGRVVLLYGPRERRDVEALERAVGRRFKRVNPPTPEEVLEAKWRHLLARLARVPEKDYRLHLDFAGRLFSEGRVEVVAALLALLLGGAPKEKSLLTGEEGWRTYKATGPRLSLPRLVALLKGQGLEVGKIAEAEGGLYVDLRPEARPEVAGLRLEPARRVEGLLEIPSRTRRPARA

B1: tRNAPro (TT_RS01350) (structured_RNA)
RNA: CGGGGCGUAGCGCAGGCCGGUAGCGCACCUGCUUUGGGAGCAGGGGGUCGCCCGUUCAAAUCGGGCCGCCCCGACCA
B2: tRNAPro (TT_RS02830) (structured_RNA)
RNA: CGGGGAGUAGCGCAGCCCGGUAGCGCACCUCGUUCGGGACGAGGGGGUCGCUGGUUCAAAUCCAGUCUCCCCGACCA
B3: 9mer DNA (ssDNA)
DNA: AGGTCCCAA
B4: RNA 2 (ssRNA)
RNA: UAGGGGCGUGUGGGCCCACCCGGCGUGGCGCUGGCUCCACC
B5: RNA 9 (ssRNA)
RNA: CUGGCUUGCCCGGGAGAUCCUGGGCUACCCCGA
B6: RNA 13 (ssRNA)
RNA: UUUGGGGCUGCGGGGCUGGACCCCACGGGCGCCGCCACCC
B7: tRNAPro (TT_RS09670) (structured_RNA)
RNA: CGGGGAGUAGCGCAGCCUGGUAGCGCACACGCUUGGGGUGCGUGGGGUCGUCGGUUCAAAUCCGGCCUCCCCGACCA
B8: tRNAGly (TT_RS08190) (structured_RNA)
RNA: GCGGGAGUAGCUCAGUCGGUAGAGCACGACCUUGCCAAGGUCGGGGUCGCGGGUUCAAGUCCCGUCUCCCGCUCCA
B9: tRNASer (TT_RS06780) (structured_RNA)
RNA: GGAGAGGUGGCCGAGUGGUCGAAGGCGGCACCCUGCUAAGGUGUUGCACCGGGAAAACCGGUGCCGCGGGUUCGAAUCCCGCCCUCUCCGCCA
B10: tRNATyr (TT_RS08805) (structured_RNA)
RNA: GGGCAGGUGCCCGAGCGGCCAAAGGGGACGGUCUGUAAAACCGUUGGCGUAUGCCUUCGCUGGUUCGAAUCCAGCCCUGCCCACCA
B11: 50U (ssRNA)
RNA: UUUUUUUUUUUUUUUUUUUUUUUUUUUUUUUUUUUUUUUUUUUUUUUUUU
B12: 50A (ssRNA)
RNA: AAAAAAAAAAAAAAAAAAAAAAAAAAAAAAAAAAAAAAAAAAAAAAAAAA
B13: RNA 1638 (ssRNA)
RNA: GCCAAGCCGGGCCUGGAC
B14: RNA 1640 (ssRNA)
RNA: CUCGUGGCCCUGGCGAGGAGGCUCGUGGAGGAGUAC
B15: RNA 1654 (ssRNA)
RNA: CCUGCACGUUCCCACCGCCUGGGU

target: T1, Hera; test: competition

Binder | Kd [nM] | binding result
B1 | 1400 | –
B2 | 600 | –
B3 | – | no binding
B4 | – | binds
B5 | – | binds
B6 | – | binds
B7 | 400 | –
B8 | 400 | –
B9 | 60 | –
B10 | 400 | –
B11 | 240 ± 50 | –
B12 | – | no binding

target: T1, Hera; test: competition; remark: another data set of the same source

Binder | binding result
B13 | no binding
B14 | no binding

target: T1, Hera; test: competition; remark: another data set of the same source

Binder | binding result
B15 | no binding
